Data: patent publication US20130078247A1 (Boehringer Ingelheim, published 2013)
Residue numbers refer to the chain shown, from its start. Like-named read-outs stand apart in the source and are kept apart here.

Columns and labels:
[1] = molecular target: T1, recombinant mouse DLL4 extracellular domain, C-terminally His-tagged (R&D Systems) (mouse, UniProt Q9JI71 27-525); test: binding ELISA on coated rmDLL4
T1 construct: range 1-525; also called rmDLL4; mDLL4; not shown: C-terminal His tag
Method: In order to determine cross-reactivity to mouse DII4 a binding ELISA is performed. […] Wells are blocked with a casein solution (1% in PBS). VHHs are applied as dilution series and binding is detected using a mouse anti-myc (Roche) and an anti-mouse-AP conjugate (Sigma, St Louis, Mo., USA) (FIG. 7).

[2] = molecular target: T2, recombinant human DLL4 extracellular domain, C-terminally His-tagged (R&D Systems) (human, UniProt Q9NR61 25-522, biotinylated in the competition assays (sites not given)); test: binding ELISA on coated rhDLL4
T2 construct: also called rhDLL4; hDLL4; not shown: C-terminal His tag
T2 sequence (Q9NR61 25-522): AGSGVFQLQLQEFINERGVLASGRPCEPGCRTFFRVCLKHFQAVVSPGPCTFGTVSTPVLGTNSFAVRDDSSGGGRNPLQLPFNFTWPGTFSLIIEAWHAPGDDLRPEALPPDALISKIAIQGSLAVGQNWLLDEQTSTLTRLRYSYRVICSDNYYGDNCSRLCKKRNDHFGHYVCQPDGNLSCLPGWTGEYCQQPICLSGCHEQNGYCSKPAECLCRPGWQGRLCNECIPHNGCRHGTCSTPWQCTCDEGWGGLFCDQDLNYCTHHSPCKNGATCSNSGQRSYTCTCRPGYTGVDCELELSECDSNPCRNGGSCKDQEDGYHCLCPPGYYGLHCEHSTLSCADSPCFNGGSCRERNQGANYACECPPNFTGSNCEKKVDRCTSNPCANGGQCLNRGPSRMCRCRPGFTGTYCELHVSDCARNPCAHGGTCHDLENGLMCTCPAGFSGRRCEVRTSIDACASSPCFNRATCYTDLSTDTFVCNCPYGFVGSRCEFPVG

[3] = molecular target: T3, recombinant human DLL1 (Alexis) (human, UniProt O00548 18-545, limits assumed); test: rhDLL1/rhJAG1 binding ELISA
T3 construct: also called hDLL1; rhDLL1
T3 sequence (looked up): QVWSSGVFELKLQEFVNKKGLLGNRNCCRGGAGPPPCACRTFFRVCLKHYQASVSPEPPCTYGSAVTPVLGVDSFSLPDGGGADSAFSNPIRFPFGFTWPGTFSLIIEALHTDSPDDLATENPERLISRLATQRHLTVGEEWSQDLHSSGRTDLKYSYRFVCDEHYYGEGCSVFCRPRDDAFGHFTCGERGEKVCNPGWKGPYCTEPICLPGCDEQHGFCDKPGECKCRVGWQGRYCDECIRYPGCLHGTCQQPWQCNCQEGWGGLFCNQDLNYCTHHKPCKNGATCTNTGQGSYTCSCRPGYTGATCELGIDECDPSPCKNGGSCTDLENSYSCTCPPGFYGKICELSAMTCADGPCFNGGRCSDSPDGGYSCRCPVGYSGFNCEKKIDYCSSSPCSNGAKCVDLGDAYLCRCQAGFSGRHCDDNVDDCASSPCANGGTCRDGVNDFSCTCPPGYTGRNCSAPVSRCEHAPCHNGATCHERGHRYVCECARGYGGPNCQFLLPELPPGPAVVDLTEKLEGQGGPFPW

[4] = molecular target: T4, recombinant human Jagged-1 (Alexis) (human, UniProt P78504 34-1067, limits assumed); test: rhDLL1/rhJAG1 binding ELISA
T4 construct: also called hJagged-1; hJAG1

[5] = molecular target: T5, mouse DLL4, full length, overexpressed on CHO or HEK293 cells (mouse, UniProt Q9JI71 27-686); test: FMAT competition: labelled hNotch1-Fc on CHO-mDLL4 cells
T5 construct: whole, on cells; also called CHO-mDLL4; CHO-mDII4
Text: (§1) All calculations are based on the FL1_total signal which comprises the average of the fluorescence per well times the number of counts per well.

[6] = molecular target: T6, human DLL4, full length, overexpressed on CHO or HEK293 cells (human, UniProt Q9NR61 27-685); test: FMAT competition: labelled hNotch1-Fc on CHO-hDLL4 cells
T6 construct: also called CHO-hDLL4; CHO-hDII4
Text: as §1

mouse Ang2 [7] = molecular target: T7, mouse Ang2 (mouse, UniProt O35608 19-496, limits assumed); test: competition ELISA mAng2/mTie2
T7 construct: also called mAng2
T7 sequence (looked up): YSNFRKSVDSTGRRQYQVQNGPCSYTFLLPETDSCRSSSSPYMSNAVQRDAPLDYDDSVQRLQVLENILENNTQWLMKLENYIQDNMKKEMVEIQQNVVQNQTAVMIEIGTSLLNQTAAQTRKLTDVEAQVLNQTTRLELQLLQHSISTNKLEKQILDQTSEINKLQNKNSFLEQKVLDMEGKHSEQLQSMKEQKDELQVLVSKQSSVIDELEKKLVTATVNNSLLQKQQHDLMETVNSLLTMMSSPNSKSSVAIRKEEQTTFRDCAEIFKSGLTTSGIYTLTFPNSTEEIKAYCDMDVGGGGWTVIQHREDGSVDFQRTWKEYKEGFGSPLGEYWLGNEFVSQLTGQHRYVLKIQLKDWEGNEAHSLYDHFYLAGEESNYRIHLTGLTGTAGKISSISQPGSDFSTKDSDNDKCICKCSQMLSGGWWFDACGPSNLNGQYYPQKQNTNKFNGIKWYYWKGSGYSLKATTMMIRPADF
Method: (§2) This assay is also performed after incubation of the VHH with 0.5 μM human serum albumin.

human Ang2 [8] = molecular target: T8, human Ang2 (human, UniProt O15123 19-496, limits assumed); test: competition ELISA hAng2/hTie2-Fc
T8 construct: also called hAng2; human Angiopoietin2
T8 sequence (looked up): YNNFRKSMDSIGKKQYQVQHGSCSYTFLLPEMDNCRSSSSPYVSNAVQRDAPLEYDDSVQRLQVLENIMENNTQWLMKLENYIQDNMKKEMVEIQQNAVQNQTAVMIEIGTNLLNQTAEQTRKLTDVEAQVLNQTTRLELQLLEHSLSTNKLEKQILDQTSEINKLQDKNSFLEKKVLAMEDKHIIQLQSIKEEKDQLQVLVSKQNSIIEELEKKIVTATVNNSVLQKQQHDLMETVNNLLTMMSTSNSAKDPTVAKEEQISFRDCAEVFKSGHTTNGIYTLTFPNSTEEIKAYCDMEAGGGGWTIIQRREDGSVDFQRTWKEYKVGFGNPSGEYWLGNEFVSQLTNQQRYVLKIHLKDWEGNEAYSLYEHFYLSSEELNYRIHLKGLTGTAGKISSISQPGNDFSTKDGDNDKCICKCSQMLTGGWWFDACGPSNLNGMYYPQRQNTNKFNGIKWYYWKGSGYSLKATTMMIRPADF
Method: as §2

human Ang2 [9] = molecular target: T8, human Ang2; test: competition ELISA hAng2/hTie2-Fc, with 0.5 uM HSA [continued]
Method: as §2

cynomolgus Ang2 [10] = molecular target: T9, cynomolgus Ang2 (cynomolgus); test: competition ELISA: cAng2 binding to cTie2
T9 construct: also called cAng2; cyno Ang2

human Ang2 [11] = molecular target: T8, human Ang2; test: competition ELISA: hAng2 binding to hTie2
mouse Ang2 [12] = molecular target: T7, mouse Ang2; test: competition ELISA: mAng2 binding to mTie2
cynomolgus Ang2 [13] = molecular target: T9, cynomolgus Ang2; test: competition ELISA: cAng2 binding to cTie2; remark: listed apart in the source
Method: as §2

cynomolgus Ang2 [14] = molecular target: T9, cynomolgus Ang2; test: competition ELISA: cAng2 binding to cTie2; remark: listed apart in the source
Method: as §2

mouse Ang2 [15] = molecular target: T7, mouse Ang2; test: competition ELISA: mAng2 binding to mTie2; remark: listed apart in the source
Method: as §2

mouse Ang2 [16] = molecular target: T7, mouse Ang2; test: competition ELISA: mAng2 binding to mTie2; remark: listed apart in the source
Method: as §2

cynomolgus Ang2 [17] = molecular target: T9, cynomolgus Ang2; test: competition ELISA: cAng2 binding to cTie2; remark: listed apart in the source
human Ang2 [18] = molecular target: T8, human Ang2; test: competition ELISA: hAng2 binding to hTie2; remark: listed apart in the source
mouse Ang2 [19] = molecular target: T7, mouse Ang2; test: competition ELISA: mAng2 binding to mTie2; remark: listed apart in the source
[20] = molecular target: T6, human DLL4, full length, overexpressed …; test: FACS titration on HEK293-hDLL4 cells
Method: (§3) In order to determine the cynomologus cross-reactivity of the VHHs, a FACS binding experiment is performed. Cynomolgus DII4 expressing HEK293 cells (transient or stable transfection) are used for a titration binding experiment of the VHHs. After a 30 minutes incubation on ice, all samples are washed and detection is performed by applying anti-c-myc-Alexa647 (Santa Cruz Biotechnology, Santa Cruz, Calif., USA). Human and mouse DII4 overexpressing HEK293 cells are taken as reference. The mean MCF value is determined on the FACS Array and used for calculation of the EC₅₀ value (see FIG. 9).

[21] = molecular target: T10, cynomolgus DLL4, full length, overexpressed on cells (cynomolgus, UniProt Q9NR61 27-685 (human entry)); test: FACS titration on HEK293-cDLL4 cells
T10 construct: also called CHO-cDLL4; cDLL4
T10 chain: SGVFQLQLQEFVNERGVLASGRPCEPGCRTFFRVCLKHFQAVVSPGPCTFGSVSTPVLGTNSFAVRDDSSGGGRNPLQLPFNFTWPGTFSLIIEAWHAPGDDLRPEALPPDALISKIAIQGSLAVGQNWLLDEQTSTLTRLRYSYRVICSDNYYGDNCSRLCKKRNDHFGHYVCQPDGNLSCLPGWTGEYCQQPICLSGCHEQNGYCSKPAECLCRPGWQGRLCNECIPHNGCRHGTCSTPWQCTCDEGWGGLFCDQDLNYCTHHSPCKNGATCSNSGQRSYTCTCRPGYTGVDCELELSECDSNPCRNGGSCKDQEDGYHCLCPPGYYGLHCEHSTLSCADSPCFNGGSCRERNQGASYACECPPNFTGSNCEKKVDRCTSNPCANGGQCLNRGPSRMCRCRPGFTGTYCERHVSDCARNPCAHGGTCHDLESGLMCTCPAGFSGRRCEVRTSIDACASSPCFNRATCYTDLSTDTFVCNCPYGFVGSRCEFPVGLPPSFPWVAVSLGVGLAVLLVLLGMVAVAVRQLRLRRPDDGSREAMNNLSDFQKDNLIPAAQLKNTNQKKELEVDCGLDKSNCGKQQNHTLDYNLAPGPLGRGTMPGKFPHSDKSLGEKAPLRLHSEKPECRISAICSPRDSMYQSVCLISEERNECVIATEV
Method: as §3

T1 sequence (Q9JI71 27-525 limits assumed): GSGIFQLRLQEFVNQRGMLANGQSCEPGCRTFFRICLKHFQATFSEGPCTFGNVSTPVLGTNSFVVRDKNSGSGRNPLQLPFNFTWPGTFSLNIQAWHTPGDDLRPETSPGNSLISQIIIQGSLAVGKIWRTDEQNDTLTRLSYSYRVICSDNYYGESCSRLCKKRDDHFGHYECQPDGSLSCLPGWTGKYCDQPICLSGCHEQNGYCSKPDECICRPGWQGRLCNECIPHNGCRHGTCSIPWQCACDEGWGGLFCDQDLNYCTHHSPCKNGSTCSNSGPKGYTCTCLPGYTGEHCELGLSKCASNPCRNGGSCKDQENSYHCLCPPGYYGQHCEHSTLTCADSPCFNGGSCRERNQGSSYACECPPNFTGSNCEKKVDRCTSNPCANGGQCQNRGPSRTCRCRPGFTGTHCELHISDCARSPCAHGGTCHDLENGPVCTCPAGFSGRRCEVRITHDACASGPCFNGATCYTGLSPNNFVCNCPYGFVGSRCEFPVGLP

B1: DLLBII133A09 (VHH)
VHH: EVQLVESGGGLVQPGGSLRLSCAASGFTFGSYDMSWVRRSPGKGPEWVSAINSGGGSTYYADYVKGRFTISRDNAKNTLYLQMNSLKPEDTAVYYCAADRYIWARQGEYWGAYAYDYWGQGTQVTVSS
notes: not shown: C-terminal c-myc and His6 tags
What does the source list for B1?
EC50 (read off the curve) [1]: ~0.9 nM; EC50 (read off the curve) [2]: ~0.7 nM; binding result [3]: no binding; binding result [4]: no binding

B2: 106H01 (VHH)
VHH: EVQLVESGGGLVQAGGSLRLSCAASGSTFSNYAMGWYRQAPGKQRELVVGISSDGSTHYADSAKGRFTISRDDAKNTVYLQMNSLKTEDTAVYYCYVPVKVAGLEYAYWGQGTQVTVSS
notes: also called DLLBII106H01
Does B2 bind [5]?
Result: binds

Does B2 bind [6]?
Result: binds

B3: 00050 (VHH)
VHH: EVQLVESGGGLVQPGGSLRLSCAASGFTFDDYALGWFRQAPGKEREGVSCIRCSDGSTYYADSVKGRFTISSDNSKNTVYLQMNSLRPEDTAVYYCAASIVPRSKLEPYEYDAWGQGTLVTVSS
For B3, which “IC50 (read off the curve)” value (mouse Ang2 [7]) is on record?
The value was about 9 nM.

And the “IC50 (read off the curve)” value (human Ang2 [8])?
The value was about 6 nM.

What about the “IC50 (read off the curve)” value (human Ang2 [9]) of the same binder?
Its value is about 6 nM.

B4: 00921 (VHH)
VHH: B3 VHH with D55G
With B4 as the binder, how does the “IC50 (read off the curve)” value (cynomolgus Ang2 [10]) read?
The value was about 40 nM.

What about the “IC50 (read off the curve)” value (human Ang2 [11]) of the same binder?
The value was about 20 nM.

What about the “IC50 (read off the curve)” value (mouse Ang2 [12]) of the same binder?
Its value is about 30 nM.

B5: 00042 (VHH)
VHH: EVQLVESGGGLVQPGGSLRLSCAASGFTLDDYAIGWFRQAPGKEREGVSSIRDNDGSTYYADSVKGRFTISSDNSKNTVYLQMNSLRPEDTAVYYCAAVPAGRLRFGEQWYPLYEYDAWGQGTLVTVSS
What does the source list for B5?
IC50 (read off the curve) (cynomolgus Ang2 [13]): ~0.8 nM; IC50 (read off the curve) (cynomolgus Ang2 [14]): ~0.5 nM; IC50 (read off the curve) (mouse Ang2 [15]): ~1 nM; IC50 (read off the curve) (mouse Ang2 [16]): ~2 nM

B6: 00938 (VHH)
VHH: B5 VHH with A24V, F27I, S50A, D53S, N54S, D55G, F106Y, L113I
With B6 as the binder, how does the “IC50 (read off the curve)” value (cynomolgus Ang2 [17]) read?
The value was about 0.1 nM.

What about the “IC50 (read off the curve)” value (human Ang2 [18]) of the same binder?
The value was about 0.04 nM.

And the “IC50 (read off the curve)” value (mouse Ang2 [19])?
Its value is about 0.06 nM.

B7: 00045 (VHH)
VHH: EVQLVESGGGLVQPGGSLRLSCAASGFALDYYAIGWFRQAPGKEREGVSCISSSDGITYYADSVKGRFTISRDNSKNTVYLQMNSLRPEDTAVYYCATDSGGYIDYDCMGLGYDYWGQGTLVTVSS
Which results are given for B7?
IC50 (read off the curve) (cynomolgus Ang2 [14]): ~0.2 nM; IC50 (read off the curve) (mouse Ang2 [15]): ~0.2 nM

B8: DLLBII56C04 (VHH)
VHH: EVQLVESGGGLVQPGGSLRLSCTASGFTFDVYAIGWFRQAPGKEPEGISCISSSGSITYYADSVKGRFTTSRDSAKNTVYLQMNSLKPEDTAVYYCATPGIAACRGIHYWGQGTQVTVSS
notes: as for B1
Which results are given for B8?
EC50 (read off the curve) [20]: ~5 nM; binding result [21]: binds
